Source: PMC4824069

Target: HEY1 (UniProt Q9Y5J3)
Experiment: co-IP of Flag-DPF3a and HA-HEY1
Details: reference: wild type; sites S348

UniProt Q9Y5J3, sequence (Q9Y5J3 whole entry, looked up): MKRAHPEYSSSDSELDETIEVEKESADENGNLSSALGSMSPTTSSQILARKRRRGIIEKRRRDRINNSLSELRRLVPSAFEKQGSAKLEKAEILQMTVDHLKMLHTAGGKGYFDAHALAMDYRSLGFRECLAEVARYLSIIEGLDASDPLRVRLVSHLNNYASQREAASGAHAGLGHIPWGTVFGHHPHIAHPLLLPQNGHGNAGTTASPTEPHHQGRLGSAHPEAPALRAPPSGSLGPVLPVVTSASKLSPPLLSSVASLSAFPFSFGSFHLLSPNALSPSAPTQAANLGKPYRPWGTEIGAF

Substance: DPF3a (BAF45c1) (from UniProt Q92784-2) S348A
- binding against the reference: weaker
